T1: human B7H3 on cancer cell lines (human, UniProt Q5ZPR3 29-534)
T1 sequence (looked up): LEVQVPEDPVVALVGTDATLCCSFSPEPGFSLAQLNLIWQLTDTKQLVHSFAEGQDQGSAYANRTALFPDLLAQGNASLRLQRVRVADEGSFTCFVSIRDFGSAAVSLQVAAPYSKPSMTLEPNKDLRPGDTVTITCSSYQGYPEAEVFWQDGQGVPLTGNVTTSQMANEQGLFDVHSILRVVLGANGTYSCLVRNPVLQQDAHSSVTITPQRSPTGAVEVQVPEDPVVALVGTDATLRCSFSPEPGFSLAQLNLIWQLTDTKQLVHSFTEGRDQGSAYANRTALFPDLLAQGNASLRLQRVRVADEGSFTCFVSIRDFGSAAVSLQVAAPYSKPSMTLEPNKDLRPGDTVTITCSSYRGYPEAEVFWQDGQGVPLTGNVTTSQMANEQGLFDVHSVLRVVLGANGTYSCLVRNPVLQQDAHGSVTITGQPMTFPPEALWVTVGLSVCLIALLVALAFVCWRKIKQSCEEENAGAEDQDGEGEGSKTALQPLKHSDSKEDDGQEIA

T2: TPP-3760, B7H3 long, human (R&D Systems 2318-B3/CF) (human, UniProt Q5ZPR3 27-461)
T2 construct: Bought protein; also called B7H3 (RnDSystems, 2318-B3-050/CF); human B7H3
T2 sequence: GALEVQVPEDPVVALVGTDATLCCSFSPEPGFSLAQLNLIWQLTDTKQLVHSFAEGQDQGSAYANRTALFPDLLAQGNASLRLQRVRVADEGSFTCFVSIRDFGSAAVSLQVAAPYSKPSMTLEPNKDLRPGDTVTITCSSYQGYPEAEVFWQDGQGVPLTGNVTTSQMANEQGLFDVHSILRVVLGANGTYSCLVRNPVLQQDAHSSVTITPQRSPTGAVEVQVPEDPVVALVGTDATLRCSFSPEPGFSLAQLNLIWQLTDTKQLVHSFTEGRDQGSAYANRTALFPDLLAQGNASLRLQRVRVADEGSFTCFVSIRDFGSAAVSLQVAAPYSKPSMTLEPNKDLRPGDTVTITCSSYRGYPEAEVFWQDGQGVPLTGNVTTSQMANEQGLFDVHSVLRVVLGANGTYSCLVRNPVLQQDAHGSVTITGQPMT

T3: human B7H2 (RnDSystems, 8206-B7) (human, UniProt O75144 19-258, limits assumed)
T3 construct: Bought protein; His tag implied by anti-His detection
T3 sequence (looked up): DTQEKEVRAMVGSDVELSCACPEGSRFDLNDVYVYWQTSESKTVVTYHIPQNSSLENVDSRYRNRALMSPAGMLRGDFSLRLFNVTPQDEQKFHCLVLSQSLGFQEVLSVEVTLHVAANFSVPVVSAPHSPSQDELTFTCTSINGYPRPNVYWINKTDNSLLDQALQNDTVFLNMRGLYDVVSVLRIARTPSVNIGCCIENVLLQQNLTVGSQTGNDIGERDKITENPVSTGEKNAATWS

T4: human B7H4 (RnDSystems, 6576-B7) (human, UniProt Q7Z7D3 29-258, limits assumed)
T4 construct: Bought protein; His tag implied by anti-His detection
T4 sequence (looked up): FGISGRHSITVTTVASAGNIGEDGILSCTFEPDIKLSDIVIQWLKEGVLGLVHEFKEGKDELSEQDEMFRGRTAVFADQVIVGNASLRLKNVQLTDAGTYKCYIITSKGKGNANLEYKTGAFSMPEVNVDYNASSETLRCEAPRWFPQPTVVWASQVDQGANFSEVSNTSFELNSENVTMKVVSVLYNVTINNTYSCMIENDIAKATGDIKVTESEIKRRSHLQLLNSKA


Key:
[1] = target: T1, human B7H3 on cancer cell lines; assay: cell-based or functional assay
[2] = target: T1, human B7H3 on cancer cell lines; assay: cell-based or functional assay; remark: listed apart in the source
[3] = target: T2, TPP-3760, B7H3 long, human (R&D Systems …); assay: ELISA, IgG captured on anti-human IgG Fc, antigen 37 ng/ml, anti-His HRP detection
Description: (§1) Binding of the antibodies to human B7H3 and to human B7H2 and B7H4 was characterized using ELISAs. […] After washing once with PSB, 0.05% Tween, the plate was blocked with 100% Smart Block (Candor) for one hour at 37° C. The antibody to be tested was then attached to the plate (2 μg/ml IgG in PBS, 0.05% Tween, 10% Smart Block; 1 hour, room temperature). […] After washing three times, the plate was incubated with Amplex Red for 30 minutes and then read.

[4] = target: T3, human B7H2 (RnDSystems, 8206-B7); assay: as above
Description: as §1

[5] = target: T4, human B7H4 (RnDSystems, 6576-B7); assay: as above
Description: as §1

[6] = target: T1, human B7H3 on cancer cell lines; assay: flow cytometry on A498 cells, dose response from 10 ug/mL (1:5 dilution), FITC secondary antibody
Description: A dose response curve (1:5 dilution) was generated. Following incubation, 200 μL of ice-cold FACS buffer were pipetted in and the cell suspension was centrifuged at 4° C., 400 g for 4 min. The cell pellet was washed with 300 μL of ice-cold FACS buffer prior to resuspending the pellet obtained in 100 μL of FACS buffer and again incubating for 30 min on ice with secondary antibody (monoclonal anti-kappa light chains FITC antibody, Sigma, No. SAB4700605) in a 1:10 dilution. Subsequently, the cells were washed with ice-cold FACS buffer and adjusted to a cell concentration of 0.5×10⁶ cells/mL before carrying out the flow cytometry using a Guava flow cytometer (Millipore). Propidium iodide (final concentration 1 μg/mL) was used for the live staining. With the aid of the background-corrected geometric mean fluorescence values, the IC50 value of the antibody to be investigated was determined.

Binder | MCF-7 CTG (IC50 M) [1] [nM] | U251 CTG (IC50 M) [2] [nM] | A498 CTG (IC 50 M) [1] [nM] | also measured
ADC Example 208-6499 (antibody, human IgG1, lambda, V domains shown, drug-linker from Intermediate F104 on Cys, sites not stated) VH: EVQLLESGGGLVQPGGSLRLSCAASGFTFRDFYMNWIRQAPGKGLEWVSSISASGKYTYYADSVKGRFTISRDNSKNTLYLQMNSLRAEDTAVYYCAREWGYCTNDVCRNWFDPWGQGTLVTVSS VL: QSVLTQPPSASGTPGQRVTISCSGGYSNVGGNNVNWYQQLPGTAPKLLIYGNSNRPSGVPDRFSGSKSGTSASLAISGLRSEDEADYYCQSYDSSLSGSVFGGGTKLTVLG | 0.135 | – | – | –
ADC Example 274-6499 (antibody, human IgG1, lambda, V domains shown, drug-linker from Intermediate F274 on Cys, sites not stated) VH: EVQLLESGGGLVQPGGSLRLSCAASGFTFRDFYMNWIRQAPGKGLEWVSSISASGKYTYYADSVKGRFTISRDNSKNTLYLQMNSLRAEDTAVYYCAREWGYCTNDVCRNWFDPWGQGTLVTVSS VL: QSVLTQPPSASGTPGQRVTISCSGGYSNVGGNNVNWYQQLPGTAPKLLIYGNSNRPSGVPDRFSGSKSGTSASLAISGLRSEDEADYYCQSYDSSLSGSVFGGGTKLTVLG | – | 1.2 | – | –
ADC Example 257-6499 (antibody, human IgG1, lambda, V domains shown, drug-linker from Intermediate F257 on Cys, sites not stated) VH: EVQLLESGGGLVQPGGSLRLSCAASGFTFRDFYMNWIRQAPGKGLEWVSSISASGKYTYYADSVKGRFTISRDNSKNTLYLQMNSLRAEDTAVYYCAREWGYCTNDVCRNWFDPWGQGTLVTVSS VL: QSVLTQPPSASGTPGQRVTISCSGGYSNVGGNNVNWYQQLPGTAPKLLIYGNSNRPSGVPDRFSGSKSGTSASLAISGLRSEDEADYYCQSYDSSLSGSVFGGGTKLTVLG | – | 0.0736 | 0.247 | Caki-2 CTG (IC50 M) [1]: < 0.03 nM
ADC Example 194-6502 (antibody, human IgG1, lambda, V domains shown, drug-linker from Intermediate F194 on Lys, sites not stated) VH: EVQLLESGGGLVQPGGSLRLSCAASGFTFSTYGMHWVRQAPGKGLEWVSAISGSGGSTYYADSVKGRFTISRDNSKNTLYLQMNSLRAEDTAVYYCTRGYYYYGMDVWGQGTLVTVSS VL: QSVLTQPPSASGTPGQRVTISCSGGSSNIGSNPVNWYQQLPGTAPKLLIYGNSKRPSGVPDRFSGSKSGTSASLAISGLRSEDEADYYCQSYDSSLSGWVFGGGTKLTVLG | 1 | – | 2.93 | –
ADC Example 208-6502 (antibody, human IgG1, lambda, V domains shown, drug-linker from Intermediate F104 on Cys, sites not stated) VH: EVQLLESGGGLVQPGGSLRLSCAASGFTFSTYGMHWVRQAPGKGLEWVSAISGSGGSTYYADSVKGRFTISRDNSKNTLYLQMNSLRAEDTAVYYCTRGYYYYGMDVWGQGTLVTVSS VL: QSVLTQPPSASGTPGQRVTISCSGGSSNIGSNPVNWYQQLPGTAPKLLIYGNSKRPSGVPDRFSGSKSGTSASLAISGLRSEDEADYYCQSYDSSLSGWVFGGGTKLTVLG | – | 0.933 | 0.0667 | –
TPP-6502 (antibody, human IgG1, lambda, V domains shown) VH: EVQLLESGGGLVQPGGSLRLSCAASGFTFSTYGMHWVRQAPGKGLEWVSAISGSGGSTYYADSVKGRFTISRDNSKNTLYLQMNSLRAEDTAVYYCTRGYYYYGMDVWGQGTLVTVSS VL: QSVLTQPPSASGTPGQRVTISCSGGSSNIGSNPVNWYQQLPGTAPKLLIYGNSKRPSGVPDRFSGSKSGTSASLAISGLRSEDEADYYCQSYDSSLSGWVFGGGTKLTVLG | – | – | – | Quotient signal (B7)/signal (buffer) [3]: 126; Quotient signal (B7)/signal (buffer) [4]: < 1.5; Quotient signal (B7)/signal (buffer) [5]: < 1.5; EC50 [6]: 0.143 nM
ADC Example 208-6501 (antibody, human IgG1, lambda, V domains shown, drug-linker from Intermediate F104 on Cys, sites not stated) VH: EVQLLESGGGLVQPGGSLRLSCAASGFTFSSYGMHWVRQAPGKGLEWVSAISGSGGSTYYADSVKGRFTISRDNSKNTLYLQMNSLRAEDTAVYYCARGSNYLGMDVWGQGTLVTVSS VL: QSVLTQPPSASGTPGQRVTISCSGSSSNIGRNIVNWYQQLPGTAPKLLIYRSNQRPSGVPDRFSGSKSGTSASLAISGLRSEDEADYYCQTWGTGWVFGGGTKLTVLG | 0.161 | 0.295 | < 0.03 | –
ADC Example 297-6501 (antibody, human IgG1, lambda, V domains shown, drug-linker from Intermediate F297 on Cys, sites not stated) VH: EVQLLESGGGLVQPGGSLRLSCAASGFTFSSYGMHWVRQAPGKGLEWVSAISGSGGSTYYADSVKGRFTISRDNSKNTLYLQMNSLRAEDTAVYYCARGSNYLGMDVWGQGTLVTVSS VL: QSVLTQPPSASGTPGQRVTISCSGSSSNIGRNIVNWYQQLPGTAPKLLIYRSNQRPSGVPDRFSGSKSGTSASLAISGLRSEDEADYYCQTWGTGWVFGGGTKLTVLG | – | 0.704 | – | –
ADC Example 173-6515 (antibody, human IgG1, lambda, V domains shown, drug-linker from Intermediate F173 on Cys, sites not stated) VH: EVQLLESGGGLVQPGGSLRLSCAASGFTFSSYGMHWVRQVPGKGLEWVSAISGSGGTTYYADSVKGRFTISRDNSKNTLYLQMNSLRAEDTAVYYCARGGYHFLFDYWGQGTLVTVSS VL: QSVLTQPPSASGTPGQRVTISCSGSSSNIGSNTVNWYQQLPGTAPKLLIYRNDQRLLGVPDRFSGSKSGTSASLAISGLRSEDEADYYCQSYDSSLSGWVFGGGTKLTVLG | – | – | > 307 | Caki-2 CTG (IC50 M) [1]: 2.57 nM
ADC Example 284-6501 (antibody, human IgG1, lambda, V domains shown, drug-linker from Intermediate F284 on Cys, sites not stated) VH: EVQLLESGGGLVQPGGSLRLSCAASGFTFSSYGMHWVRQAPGKGLEWVSAISGSGGSTYYADSVKGRFTISRDNSKNTLYLQMNSLRAEDTAVYYCARGSNYLGMDVWGQGTLVTVSS VL: QSVLTQPPSASGTPGQRVTISCSGSSSNIGRNIVNWYQQLPGTAPKLLIYRSNQRPSGVPDRFSGSKSGTSASLAISGLRSEDEADYYCQTWGTGWVFGGGTKLTVLG | – | 62.9 | – | –
ADC Example 281-6501 (antibody, human IgG1, lambda, V domains shown, drug-linker from Intermediate F281 on Cys, sites not stated) VH: EVQLLESGGGLVQPGGSLRLSCAASGFTFSSYGMHWVRQAPGKGLEWVSAISGSGGSTYYADSVKGRFTISRDNSKNTLYLQMNSLRAEDTAVYYCARGSNYLGMDVWGQGTLVTVSS VL: QSVLTQPPSASGTPGQRVTISCSGSSSNIGRNIVNWYQQLPGTAPKLLIYRSNQRPSGVPDRFSGSKSGTSASLAISGLRSEDEADYYCQTWGTGWVFGGGTKLTVLG | – | 29.9 | – | –
ADC Example 208-6515 (antibody, human IgG1, lambda, V domains shown, drug-linker from Intermediate F104 on Cys, sites not stated) VH: EVQLLESGGGLVQPGGSLRLSCAASGFTFSSYGMHWVRQVPGKGLEWVSAISGSGGTTYYADSVKGRFTISRDNSKNTLYLQMNSLRAEDTAVYYCARGGYHFLFDYWGQGTLVTVSS VL: QSVLTQPPSASGTPGQRVTISCSGSSSNIGSNTVNWYQQLPGTAPKLLIYRNDQRLLGVPDRFSGSKSGTSASLAISGLRSEDEADYYCQSYDSSLSGWVFGGGTKLTVLG | 0.338 | 0.41 | 0.688 | –

Reference: patent US20200138970A1 (Bayer, published 2020)
